Assay results reported in patent US20250171562A1.

B1: NIgG4E1A1(RS) (Fc fusion)
chain 1: DVQLQESGGGLVQAGGSLRLSCLASGRTFTTTSGYNMGWFRQAPGKEREFVAGIKWVSGSNRAYAESVKGRFTISRDNAKNTVYLQMNSLKPEDTAVYYCAAATGQSYVPIREYEYVYWGQGTQVTVSRSGPPCPPCPAPEFLGGPSVFLFPPKPKDTLMISRTPEVTCVVVDVSQEDPEVQFNWYVDGVEVHNAKTKPREEQFNSTYRVVSVLTVLHQDWLNGKEYKCKVSNKGLPSSIEKTISKAKGQPREPQVYTLPPCQEEMTKNQVSLWCLVKGFYPSDIAVEWESNGQPENNYKTTPPVLDSDGSFFLYSRLTVDKSRWQEGNVFSCSVMHEALHNHYTQKSLSLSLGK
chain 2: EVQLLESGGGLVQPGGSLRLSCAASGFTFGNYDMAWVRQAPGKRPEWVSSIDTGGDITHYADSVKGRFTISRDNAKNTLYLQMNSLRPEDTAVYWCATDEEYALGPNEFDYYGQGTLVTVSSRSGPPCPPCPAPEFLGGPSVFLFPPKPKDTLMISRTPEVTCVVVDVSQEDPEVQFNWYVDGVEVHNAKTKPREEQFNSTYRVVSVLTVLHQDWLNGKEYKCKVSNKGLPSSIEKTISKAKGQPREPQVCTLPPSQEEMTKNQVSLSCAVKGFYPSDIAVEWESNGQPENNYKTTPPVLDSDGSFFLVSRLTVDKSRWQEGNVFSCSVMHEALHNHYTQKSLSLSLGK
B2: CIgG4D2A1(G4S)2 (Fc fusion)
chain 1: GPPCPPCPAPEFLGGPSVFLFPPKPKDTLMISRTPEVTCVVVDVSQEDPEVQFNWYVDGVEVHNAKTKPREEQFNSTYRVVSVLTVLHQDWLNGKEYKCKVSNKGLPSSIEKTISKAKGQPREPQVYTLPPCQEEMTKNQVSLWCLVKGFYPSDIAVEWESNGQPENNYKTTPPVLDSDGSFFLYSRLTVDKSRWQEGNVFSCSVMHEALHNHYTQKSLSLSLGKGGGGSGGGGSDVQLQESGGGLVEAGGSLRLSCVASGRTFSGWSMGWFRQAPGKEREFVAAISWVGSWIGGTVYSNSVKGRFTISRDNARTTVYLQMNSLKPEDTAVYFCAAANSETPRIFASEYDYWGQGTQVTVS
chain 2: GPPCPPCPAPEFLGGPSVFLFPPKPKDTLMISRTPEVTCVVVDVSQEDPEVQFNWYVDGVEVHNAKTKPREEQFNSTYRVVSVLTVLHQDWLNGKEYKCKVSNKGLPSSIEKTISKAKGQPREPQVCTLPPSQEEMTKNQVSLSCAVKGFYPSDIAVEWESNGQPENNYKTTPPVLDSDGSFFLVSRLTVDKSRWQEGNVFSCSVMHEALHNHYTQKSLSLSLGKGGGGSGGGGSEVQLLESGGGLVQPGGSLRLSCAASGFTFGNYDMAWVRQAPGKRPEWVSSIDTGGDITHYADSVKGRFTISRDNAKNTLYLQMNSLRPEDTAVYWCATDEEYALGPNEFDYYGQGTLVTVSS
B3: CIgG4D2A1(G4S)3 (Fc fusion)
chain 1: GPPCPPCPAPEFLGGPSVFLFPPKPKDTLMISRTPEVTCVVVDVSQEDPEVQFNWYVDGVEVHNAKTKPREEQFNSTYRVVSVLTVLHQDWLNGKEYKCKVSNKGLPSSIEKTISKAKGQPREPQVYTLPPCQEEMTKNQVSLWCLVKGFYPSDIAVEWESNGQPENNYKTTPPVLDSDGSFFLYSRLTVDKSRWQEGNVFSCSVMHEALHNHYTQKSLSLSLGKGGGGSGGGGSGGGGSDVQLQESGGGLVEAGGSLRLSCVASGRTFSGWSMGWFRQAPGKEREFVAAISWVGSWIGGTVYSNSVKGRFTISRDNARTTVYLQMNSLKPEDTAVYFCAAANSETPRIFASEYDYWGQGTQVTVS
chain 2: GPPCPPCPAPEFLGGPSVFLFPPKPKDTLMISRTPEVTCVVVDVSQEDPEVQFNWYVDGVEVHNAKTKPREEQFNSTYRVVSVLTVLHQDWLNGKEYKCKVSNKGLPSSIEKTISKAKGQPREPQVCTLPPSQEEMTKNQVSLSCAVKGFYPSDIAVEWESNGQPENNYKTTPPVLDSDGSFFLVSRLTVDKSRWQEGNVFSCSVMHEALHNHYTQKSLSLSLGKGGGGSGGGGSGGGGSEVQLLESGGGLVQPGGSLRLSCAASGFTFGNYDMAWVRQAPGKRPEWVSSIDTGGDITHYADSVKGRFTISRDNAKNTLYLQMNSLRPEDTAVYWCATDEEYALGPNEFDYYGQGTLVTVSS
B4: NIgG4E1A1(G4S)1 (Fc fusion)
chain 1: DVQLQESGGGLVQAGGSLRLSCLASGRTFTTTSGYNMGWFRQAPGKEREFVAGIKWVSGSNRAYAESVKGRFTISRDNAKNTVYLQMNSLKPEDTAVYYCAAATGQSYVPIREYEYVYWGQGTQVTVSGGGGSGPPCPPCPAPEFLGGPSVFLFPPKPKDTLMISRTPEVTCVVVDVSQEDPEVQFNWYVDGVEVHNAKTKPREEQFNSTYRVVSVLTVLHQDWLNGKEYKCKVSNKGLPSSIEKTISKAKGQPREPQVYTLPPCQEEMTKNQVSLWCLVKGFYPSDIAVEWESNGQPENNYKTTPPVLDSDGSFFLYSRLTVDKSRWQEGNVFSCSVMHEALHNHYTQKSLSLSLGK
chain 2: EVQLLESGGGLVQPGGSLRLSCAASGFTFGNYDMAWVRQAPGKRPEWVSSIDTGGDITHYADSVKGRFTISRDNAKNTLYLQMNSLRPEDTAVYWCATDEEYALGPNEFDYYGQGTLVTVSSGGGGSGPPCPPCPAPEFLGGPSVFLFPPKPKDTLMISRTPEVTCVVVDVSQEDPEVQFNWYVDGVEVHNAKTKPREEQFNSTYRVVSVLTVLHQDWLNGKEYKCKVSNKGLPSSIEKTISKAKGQPREPQVCTLPPSQEEMTKNQVSLSCAVKGFYPSDIAVEWESNGQPENNYKTTPPVLDSDGSFFLVSRLTVDKSRWQEGNVFSCSVMHEALHNHYTQKSLSLSLGK
B5: CIgG4E1A1(RS) (Fc fusion)
chain 1: GPPCPPCPAPEFLGGPSVFLFPPKPKDTLMISRTPEVTCVVVDVSQEDPEVQFNWYVDGVEVHNAKTKPREEQFNSTYRVVSVLTVLHQDWLNGKEYKCKVSNKGLPSSIEKTISKAKGQPREPQVYTLPPCQEEMTKNQVSLWCLVKGFYPSDIAVEWESNGQPENNYKTTPPVLDSDGSFFLYSRLTVDKSRWQEGNVFSCSVMHEALHNHYTQKSLSLSLGKRSDVQLQESGGGLVQAGGSLRLSCLASGRTFTTTSGYNMGWFRQAPGKEREFVAGIKWVSGSNRAYAESVKGRFTISRDNAKNTVYLQMNSLKPEDTAVYYCAAATGQSYVPIREYEYVYWGQGTQVTVS
chain 2: GPPCPPCPAPEFLGGPSVFLFPPKPKDTLMISRTPEVTCVVVDVSQEDPEVQFNWYVDGVEVHNAKTKPREEQFNSTYRVVSVLTVLHQDWLNGKEYKCKVSNKGLPSSIEKTISKAKGQPREPQVCTLPPSQEEMTKNQVSLSCAVKGFYPSDIAVEWESNGQPENNYKTTPPVLDSDGSFFLVSRLTVDKSRWQEGNVFSCSVMHEALHNHYTQKSLSLSLGKRSEVQLLESGGGLVQPGGSLRLSCAASGFTFGNYDMAWVRQAPGKRPEWVSSIDTGGDITHYADSVKGRFTISRDNAKNTLYLQMNSLRPEDTAVYWCATDEEYALGPNEFDYYGQGTLVTVSS
B6: CIgG4D2A1(G4S)1 (Fc fusion)
chain 1: GPPCPPCPAPEFLGGPSVFLFPPKPKDTLMISRTPEVTCVVVDVSQEDPEVQFNWYVDGVEVHNAKTKPREEQFNSTYRVVSVLTVLHQDWLNGKEYKCKVSNKGLPSSIEKTISKAKGQPREPQVYTLPPCQEEMTKNQVSLWCLVKGFYPSDIAVEWESNGQPENNYKTTPPVLDSDGSFFLYSRLTVDKSRWQEGNVFSCSVMHEALHNHYTQKSLSLSLGKGGGGSDVQLQESGGGLVEAGGSLRLSCVASGRTFSGWSMGWFRQAPGKEREFVAAISWVGSWIGGTVYSNSVKGRFTISRDNARTTVYLQMNSLKPEDTAVYFCAAANSETPRIFASEYDYWGQGTQVTVS
chain 2: GPPCPPCPAPEFLGGPSVFLFPPKPKDTLMISRTPEVTCVVVDVSQEDPEVQFNWYVDGVEVHNAKTKPREEQFNSTYRVVSVLTVLHQDWLNGKEYKCKVSNKGLPSSIEKTISKAKGQPREPQVCTLPPSQEEMTKNQVSLSCAVKGFYPSDIAVEWESNGQPENNYKTTPPVLDSDGSFFLVSRLTVDKSRWQEGNVFSCSVMHEALHNHYTQKSLSLSLGKGGGGSEVQLLESGGGLVQPGGSLRLSCAASGFTFGNYDMAWVRQAPGKRPEWVSSIDTGGDITHYADSVKGRFTISRDNAKNTLYLQMNSLRPEDTAVYWCATDEEYALGPNEFDYYGQGTLVTVSS
B7: NIgG4E1A1(G4S)3 (Fc fusion)
chain 1: DVQLQESGGGLVQAGGSLRLSCLASGRTFTTTSGYNMGWFRQAPGKEREFVAGIKWVSGSNRAYAESVKGRFTISRDNAKNTVYLQMNSLKPEDTAVYYCAAATGQSYVPIREYEYVYWGQGTQVTVSGGGGSGGGGSGGGGSGPPCPPCPAPEFLGGPSVFLFPPKPKDTLMISRTPEVTCVVVDVSQEDPEVQFNWYVDGVEVHNAKTKPREEQFNSTYRVVSVLTVLHQDWLNGKEYKCKVSNKGLPSSIEKTISKAKGQPREPQVYTLPPCQEEMTKNQVSLWCLVKGFYPSDIAVEWESNGQPENNYKTTPPVLDSDGSFFLYSRLTVDKSRWQEGNVFSCSVMHEALHNHYTQKSLSLSLGK
chain 2: EVQLLESGGGLVQPGGSLRLSCAASGFTFGNYDMAWVRQAPGKRPEWVSSIDTGGDITHYADSVKGRFTISRDNAKNTLYLQMNSLRPEDTAVYWCATDEEYALGPNEFDYYGQGTLVTVSSGGGGSGGGGSGGGGSGPPCPPCPAPEFLGGPSVFLFPPKPKDTLMISRTPEVTCVVVDVSQEDPEVQFNWYVDGVEVHNAKTKPREEQFNSTYRVVSVLTVLHQDWLNGKEYKCKVSNKGLPSSIEKTISKAKGQPREPQVCTLPPSQEEMTKNQVSLSCAVKGFYPSDIAVEWESNGQPENNYKTTPPVLDSDGSFFLVSRLTVDKSRWQEGNVFSCSVMHEALHNHYTQKSLSLSLGK
B8: NIgG4E1A1(G4S)2 (Fc fusion)
chain 1: DVQLQESGGGLVQAGGSLRLSCLASGRTFTTTSGYNMGWFRQAPGKEREFVAGIKWVSGSNRAYAESVKGRFTISRDNAKNTVYLQMNSLKPEDTAVYYCAAATGQSYVPIREYEYVYWGQGTQVTVSGGGGSGGGGSGPPCPPCPAPEFLGGPSVFLFPPKPKDTLMISRTPEVTCVVVDVSQEDPEVQFNWYVDGVEVHNAKTKPREEQFNSTYRVVSVLTVLHQDWLNGKEYKCKVSNKGLPSSIEKTISKAKGQPREPQVYTLPPCQEEMTKNQVSLWCLVKGFYPSDIAVEWESNGQPENNYKTTPPVLDSDGSFFLYSRLTVDKSRWQEGNVFSCSVMHEALHNHYTQKSLSLSLGK
chain 2: EVQLLESGGGLVQPGGSLRLSCAASGFTFGNYDMAWVRQAPGKRPEWVSSIDTGGDITHYADSVKGRFTISRDNAKNTLYLQMNSLRPEDTAVYWCATDEEYALGPNEFDYYGQGTLVTVSSGGGGSGGGGSGPPCPPCPAPEFLGGPSVFLFPPKPKDTLMISRTPEVTCVVVDVSQEDPEVQFNWYVDGVEVHNAKTKPREEQFNSTYRVVSVLTVLHQDWLNGKEYKCKVSNKGLPSSIEKTISKAKGQPREPQVCTLPPSQEEMTKNQVSLSCAVKGFYPSDIAVEWESNGQPENNYKTTPPVLDSDGSFFLVSRLTVDKSRWQEGNVFSCSVMHEALHNHYTQKSLSLSLGK

What follows are binders tested against mixture of three Der p 2 specific recombinant human IgE clones H10, H12, P4E (human) (UniProt P01854) (assay: RBL-SX38 IgE displacement, FACS).
Chain of mixture of three Der p 2 specific recombinant human IgE clones H10, H12, P4E (human) (P01854 other isoform, or with tags, fused parts or gaps): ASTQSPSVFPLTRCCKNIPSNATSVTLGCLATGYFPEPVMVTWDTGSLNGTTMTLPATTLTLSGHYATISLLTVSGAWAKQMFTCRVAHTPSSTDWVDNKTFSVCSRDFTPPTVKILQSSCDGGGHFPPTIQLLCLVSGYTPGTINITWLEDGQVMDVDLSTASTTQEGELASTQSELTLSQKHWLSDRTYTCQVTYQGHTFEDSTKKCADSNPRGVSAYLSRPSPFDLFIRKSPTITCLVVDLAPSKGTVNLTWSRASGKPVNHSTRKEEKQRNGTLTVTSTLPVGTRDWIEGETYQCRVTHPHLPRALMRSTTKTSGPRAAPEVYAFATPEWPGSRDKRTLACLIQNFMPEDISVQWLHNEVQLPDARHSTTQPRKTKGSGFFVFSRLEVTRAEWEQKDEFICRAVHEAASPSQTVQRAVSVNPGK
B1 was tested, and the EC50 was 8.7 nM and the Max effect/effect 1 µM was 97%. With B2 the EC50 was 39 nM and the Max effect/effect 1 µM was 99%. Binder B3 has an EC50 of 28.8 nM and a Max effect/effect 1 µM of 99%. B4 gave an EC50 of 7.1 nM and a Max effect/effect 1 µM of 96%. B5 was tested, and the Max effect/effect 1 µM was 9%. B6 showed an EC50 of 126 nM and a Max effect/effect 1 µM of 95%. Work on B7 yielded an EC50 of 3.7 nM and a Max effect/effect 1 µM of 98%. B8 was tested, and the EC50 was 4.8 nM and the Max effect/effect 1 µM was 94%.
